From paper PMC4434891, “The Smc5-Smc6 heterodimer associates with DNA through several independent binding domains” (Scientific Reports, 2015)

Target: T1, Smc6 FL (full-length Smc6) (UniProt Q12749 1-1114)
T1 construct: Smc6, full length, residues 1-1114; Vector YEpFAT4; also called FL Smc6; source: yeast, purified as previously described (StrepTrap column)
T1 sequence (looked up): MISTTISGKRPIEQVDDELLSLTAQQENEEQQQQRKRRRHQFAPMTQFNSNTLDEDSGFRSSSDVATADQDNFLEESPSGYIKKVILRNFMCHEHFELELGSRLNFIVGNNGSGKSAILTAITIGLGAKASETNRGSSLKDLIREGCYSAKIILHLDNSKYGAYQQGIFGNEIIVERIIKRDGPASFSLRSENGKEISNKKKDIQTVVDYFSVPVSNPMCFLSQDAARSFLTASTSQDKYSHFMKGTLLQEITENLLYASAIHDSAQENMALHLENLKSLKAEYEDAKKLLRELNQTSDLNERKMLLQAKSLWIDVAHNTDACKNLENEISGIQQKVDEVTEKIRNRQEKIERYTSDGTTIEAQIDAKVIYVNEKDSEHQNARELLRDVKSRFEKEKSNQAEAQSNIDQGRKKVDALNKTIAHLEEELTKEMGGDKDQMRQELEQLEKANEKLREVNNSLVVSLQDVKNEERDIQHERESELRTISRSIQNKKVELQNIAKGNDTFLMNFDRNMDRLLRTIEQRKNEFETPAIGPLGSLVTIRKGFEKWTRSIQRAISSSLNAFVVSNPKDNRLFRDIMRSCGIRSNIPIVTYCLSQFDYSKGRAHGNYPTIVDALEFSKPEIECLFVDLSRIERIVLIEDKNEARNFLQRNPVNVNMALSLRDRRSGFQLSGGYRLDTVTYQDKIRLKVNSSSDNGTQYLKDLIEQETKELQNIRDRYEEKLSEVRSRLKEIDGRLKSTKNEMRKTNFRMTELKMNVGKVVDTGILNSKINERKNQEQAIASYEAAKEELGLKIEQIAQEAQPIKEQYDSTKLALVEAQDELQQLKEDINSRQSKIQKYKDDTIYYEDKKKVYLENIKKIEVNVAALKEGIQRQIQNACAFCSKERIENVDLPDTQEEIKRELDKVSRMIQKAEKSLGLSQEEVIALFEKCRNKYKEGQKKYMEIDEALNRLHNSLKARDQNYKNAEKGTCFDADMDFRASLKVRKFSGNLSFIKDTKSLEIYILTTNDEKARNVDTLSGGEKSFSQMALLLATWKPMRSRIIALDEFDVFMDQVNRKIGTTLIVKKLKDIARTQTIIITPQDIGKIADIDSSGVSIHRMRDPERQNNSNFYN
Assay: SEC; StrepTrap eluates of Smc6 (5 mL) and Smc5 (150 uL) mixed, overnight at 4 °C, concentrated; complexes separated from monomeric subunits on Superose 6 10/300 in buffer G (25 mM potassium phosphate pH 8.0, 750 mM NaCl, 15% glycerol, 0.2% Tween 20, 2 mM 2-ME, 1 mM EDTA)
Details: both partners purified

B1: Smc5 FL (full-length Smc5) (natural protein, UniProt Q08204 1-1093, looked up)
chain: MTSLIDLGRYVERTHHGEDTEPRSKRVKIAKPDLSSFQPGSIIKIRLQDFVTYTLTEFNLSPSLNMIIGPNGSGKSTFVCAVCLGLAGKPEYIGRSKKVEDFIKNGQDVSKIEITLKNSPNVTDIEYIDARDETIKITRIITRSKRRSDYLINDYQVSESVVKTLVAQLNIQLDNLCQFLSQERVEEFARLKSVKLLVETIRSIDASLLDVLDELRELQGNEQSLQKDLDFKKAKIVHLRQESDKLRKSVESLRDFQNKKGEIELHSQLLPYVKVKDHKEKLNIYKEEYERAKANLRAILKDKKPFANTKKTLENQVEELTEKCSLKTDEFLKAKEKINEIFEKLNTIRDEVIKKKNQNEYYRGRTKKLQATIISTKEDFLRSQEILAQTHLPEKSVFEDIDIKRKEIINKEGEIRDLISEIDAKANAINHEMRSIQRQAESKTKSLTTTDKIGILNQDQDLKEVRDAVLMVREHPEMKDKILEPPIMTVSAINAQFAAYLAQCVDYNTSKALTVVDSDSYKLFANPILDKFKVNLRELSSADTTPPVPAETVRDLGFEGYLSDFITGDKRVMKMLCQTSKIHTIPVSRRELTPAQIKKLITPRPNGKILFKRIIHGNRLVDIKQSAYGSKQVFPTDVSIKQTNFYQGSIMSNEQKIRIENEIINLKNEYNDRKSTLDALSNQKSGYRHELSELASKNDDINREAHQLNEIRKKYTMRKSTIETLREKLDQLKREARKDVSQKIKDIDDQIQQLLLKQRHLLSKMASSMKSLKNCQKELISTQILQFEAQNMDVSMNDVIGFFNEREADLKSQYEDKKKFVKEMRDTPEFQSWMREIRSYDQDTKEKLNKVAEKYEEEGNFNLSFVQDVLDKLESEIAMVNHDESAVTILDQVTAELRELEHTVPQQSKDLETIKAKLKEDHAVLEPKLDDIVSKISARFARLFNNVGSAGAVRLEKPKDYAEWKIEIMVKFRDNAPLKKLDSHTQSGGERAVSTVLYMIALQEFTSAPFRVVDEINQGMDSRNERIVHKAMVENACAENTSQYFLITPKLLTGLHYHEKMRIHCVMAGSWIPNPSEDPKMIHFGETSNYSFD
notes: Smc5, full length, residues 1-1093; Vector YEpFAT4; also called FL Smc5; source: yeast, purified as previously described (StrepTrap column)
B1: binds.
